Test results taken from article PMC3097235.

What was measured:
[1] = DOPA oxidase recovery after culture at 31°C; conditions: glycan lost; control: wild type
[2] = immunofluorescence co-localisation with ERGIC-53, nocodazole-treated cells; conditions: glycan lost; control: wild type
[3] = immunofluorescence co-localisation with ER marker calnexin; conditions: glycan lost; control: wild type
[4] = Endo H resistance (ER exit), immunoblot; conditions: glycan lost; control: wild type
[5] = DOPA oxidase specific activity, cells at 37°C; conditions: glycan lost; control: wild type
[6] = pulse-chase IP of wild type, degradation; conditions: glycan changed form; control: untreated
[7] = pulse-chase, DTT accessibility of disulfides, non-reducing SDS-PAGE; conditions: glycan lost; control: wild type
[8] = pulse-chase IP with or without kifunensine; conditions: glycan lost; control: wild type (accumulates with kifunensine)

Row | Protein | stability_or_folding [1] | localisation_or_trafficking [2] | localisation_or_trafficking [3] | localisation_or_trafficking [4] | enzymatic_activity, percent_of_wt [5] | degradation_or_half_life [6] | stability_or_folding [7] | other: kifunensine rescue from degradation [8]
1 | human tyrosinase: Δ2 (protein) parent chain: MLLAVLYCLLWSFQTSAGHFPRACVSSKNLMEKECCPPWSGDRSPCGQLSGRGSCQNILLSNAPLGPQFPFTGVDDRESWPSVFYNRTCQCSGNFMGFNCGNCKFGFWGPNCTERRLLVRRNIFDLSAPEKDKFFAYLTLAKHTISSDYVIPIGTYGQMKNGSTPMFNDINIYDLFVWMHYYVSMDALLGGSEIWRDIDFAHEAPAFLPWHRLFLLRWEQEIQKLTGDENFTIPYWDWRDAEKCDICTDEYMGGQHPTNPNLLSPASFFSSWQIVCSRLEEYNSHQSLCNGTPEGPLRRNPGNHDKSRTPRLPSSADVEFCLSLTQYESGSMDKAANFSFRNTLEGFASPLTGIADASQSSMHNALHIYMNGTMSQVQGSANDPIFLLHHAFVDSIFEQWLRRHRPLQEVYPEANAPIGHNRESYMVPFIPLYRNGDFFISSKDLGYDYSYLQDSDPDSFQDYIKSYLEQASRIWSWLLGAAMVGAVLTALLAGLVSLLCRHKRKQLPEEKQPLLMEKEDYHSLYQSHL | decreases | no change | changes | abolishes | decreases, The remaining mutants show intermediate activity, ranging from 25% to 30% | – | – | –
2 | human tyrosinase: kifunensine (protein) parent chain: MLLAVLYCLLWSFQTSAGHFPRACVSSKNLMEKECCPPWSGDRSPCGQLSGRGSCQNILLSNAPLGPQFPFTGVDDRESWPSVFYNRTCQCSGNFMGFNCGNCKFGFWGPNCTERRLLVRRNIFDLSAPEKDKFFAYLTLAKHTISSDYVIPIGTYGQMKNGSTPMFNDINIYDLFVWMHYYVSMDALLGGSEIWRDIDFAHEAPAFLPWHRLFLLRWEQEIQKLTGDENFTIPYWDWRDAEKCDICTDEYMGGQHPTNPNLLSPASFFSSWQIVCSRLEEYNSHQSLCNGTPEGPLRRNPGNHDKSRTPRLPSSADVEFCLSLTQYESGSMDKAANFSFRNTLEGFASPLTGIADASQSSMHNALHIYMNGTMSQVQGSANDPIFLLHHAFVDSIFEQWLRRHRPLQEVYPEANAPIGHNRESYMVPFIPLYRNGDFFISSKDLGYDYSYLQDSDPDSFQDYIKSYLEQASRIWSWLLGAAMVGAVLTALLAGLVSLLCRHKRKQLPEEKQPLLMEKEDYHSLYQSHL | – | – | – | – | – | increases | – | –
3 | human tyrosinase: Δ4 (protein) parent chain: MLLAVLYCLLWSFQTSAGHFPRACVSSKNLMEKECCPPWSGDRSPCGQLSGRGSCQNILLSNAPLGPQFPFTGVDDRESWPSVFYNRTCQCSGNFMGFNCGNCKFGFWGPNCTERRLLVRRNIFDLSAPEKDKFFAYLTLAKHTISSDYVIPIGTYGQMKNGSTPMFNDINIYDLFVWMHYYVSMDALLGGSEIWRDIDFAHEAPAFLPWHRLFLLRWEQEIQKLTGDENFTIPYWDWRDAEKCDICTDEYMGGQHPTNPNLLSPASFFSSWQIVCSRLEEYNSHQSLCNGTPEGPLRRNPGNHDKSRTPRLPSSADVEFCLSLTQYESGSMDKAANFSFRNTLEGFASPLTGIADASQSSMHNALHIYMNGTMSQVQGSANDPIFLLHHAFVDSIFEQWLRRHRPLQEVYPEANAPIGHNRESYMVPFIPLYRNGDFFISSKDLGYDYSYLQDSDPDSFQDYIKSYLEQASRIWSWLLGAAMVGAVLTALLAGLVSLLCRHKRKQLPEEKQPLLMEKEDYHSLYQSHL | decreases | no change | changes | abolishes | decreases, The remaining mutants show intermediate activity, ranging from 25% to 30% | – | – | –
4 | human tyrosinase: Δ6 (protein) parent chain: MLLAVLYCLLWSFQTSAGHFPRACVSSKNLMEKECCPPWSGDRSPCGQLSGRGSCQNILLSNAPLGPQFPFTGVDDRESWPSVFYNRTCQCSGNFMGFNCGNCKFGFWGPNCTERRLLVRRNIFDLSAPEKDKFFAYLTLAKHTISSDYVIPIGTYGQMKNGSTPMFNDINIYDLFVWMHYYVSMDALLGGSEIWRDIDFAHEAPAFLPWHRLFLLRWEQEIQKLTGDENFTIPYWDWRDAEKCDICTDEYMGGQHPTNPNLLSPASFFSSWQIVCSRLEEYNSHQSLCNGTPEGPLRRNPGNHDKSRTPRLPSSADVEFCLSLTQYESGSMDKAANFSFRNTLEGFASPLTGIADASQSSMHNALHIYMNGTMSQVQGSANDPIFLLHHAFVDSIFEQWLRRHRPLQEVYPEANAPIGHNRESYMVPFIPLYRNGDFFISSKDLGYDYSYLQDSDPDSFQDYIKSYLEQASRIWSWLLGAAMVGAVLTALLAGLVSLLCRHKRKQLPEEKQPLLMEKEDYHSLYQSHL | decreases | no change | changes | abolishes | abolishes | – | – | –
5 | human tyrosinase: Δ1 (protein) parent chain: MLLAVLYCLLWSFQTSAGHFPRACVSSKNLMEKECCPPWSGDRSPCGQLSGRGSCQNILLSNAPLGPQFPFTGVDDRESWPSVFYNRTCQCSGNFMGFNCGNCKFGFWGPNCTERRLLVRRNIFDLSAPEKDKFFAYLTLAKHTISSDYVIPIGTYGQMKNGSTPMFNDINIYDLFVWMHYYVSMDALLGGSEIWRDIDFAHEAPAFLPWHRLFLLRWEQEIQKLTGDENFTIPYWDWRDAEKCDICTDEYMGGQHPTNPNLLSPASFFSSWQIVCSRLEEYNSHQSLCNGTPEGPLRRNPGNHDKSRTPRLPSSADVEFCLSLTQYESGSMDKAANFSFRNTLEGFASPLTGIADASQSSMHNALHIYMNGTMSQVQGSANDPIFLLHHAFVDSIFEQWLRRHRPLQEVYPEANAPIGHNRESYMVPFIPLYRNGDFFISSKDLGYDYSYLQDSDPDSFQDYIKSYLEQASRIWSWLLGAAMVGAVLTALLAGLVSLLCRHKRKQLPEEKQPLLMEKEDYHSLYQSHL | decreases | no change | changes | decreases | decreases, The remaining mutants show intermediate activity, ranging from 25% to 30% | – | – | –
6 | human tyrosinase: Δ7 (protein) parent chain: MLLAVLYCLLWSFQTSAGHFPRACVSSKNLMEKECCPPWSGDRSPCGQLSGRGSCQNILLSNAPLGPQFPFTGVDDRESWPSVFYNRTCQCSGNFMGFNCGNCKFGFWGPNCTERRLLVRRNIFDLSAPEKDKFFAYLTLAKHTISSDYVIPIGTYGQMKNGSTPMFNDINIYDLFVWMHYYVSMDALLGGSEIWRDIDFAHEAPAFLPWHRLFLLRWEQEIQKLTGDENFTIPYWDWRDAEKCDICTDEYMGGQHPTNPNLLSPASFFSSWQIVCSRLEEYNSHQSLCNGTPEGPLRRNPGNHDKSRTPRLPSSADVEFCLSLTQYESGSMDKAANFSFRNTLEGFASPLTGIADASQSSMHNALHIYMNGTMSQVQGSANDPIFLLHHAFVDSIFEQWLRRHRPLQEVYPEANAPIGHNRESYMVPFIPLYRNGDFFISSKDLGYDYSYLQDSDPDSFQDYIKSYLEQASRIWSWLLGAAMVGAVLTALLAGLVSLLCRHKRKQLPEEKQPLLMEKEDYHSLYQSHL | abolishes | no change | changes | abolishes | abolishes | – | decreases | no change
7 | human tyrosinase: Δ(5,6,7) (protein) parent chain: MLLAVLYCLLWSFQTSAGHFPRACVSSKNLMEKECCPPWSGDRSPCGQLSGRGSCQNILLSNAPLGPQFPFTGVDDRESWPSVFYNRTCQCSGNFMGFNCGNCKFGFWGPNCTERRLLVRRNIFDLSAPEKDKFFAYLTLAKHTISSDYVIPIGTYGQMKNGSTPMFNDINIYDLFVWMHYYVSMDALLGGSEIWRDIDFAHEAPAFLPWHRLFLLRWEQEIQKLTGDENFTIPYWDWRDAEKCDICTDEYMGGQHPTNPNLLSPASFFSSWQIVCSRLEEYNSHQSLCNGTPEGPLRRNPGNHDKSRTPRLPSSADVEFCLSLTQYESGSMDKAANFSFRNTLEGFASPLTGIADASQSSMHNALHIYMNGTMSQVQGSANDPIFLLHHAFVDSIFEQWLRRHRPLQEVYPEANAPIGHNRESYMVPFIPLYRNGDFFISSKDLGYDYSYLQDSDPDSFQDYIKSYLEQASRIWSWLLGAAMVGAVLTALLAGLVSLLCRHKRKQLPEEKQPLLMEKEDYHSLYQSHL | – | – | – | – | – | – | – | decreases
8 | human tyrosinase: Δall (protein) parent chain: MLLAVLYCLLWSFQTSAGHFPRACVSSKNLMEKECCPPWSGDRSPCGQLSGRGSCQNILLSNAPLGPQFPFTGVDDRESWPSVFYNRTCQCSGNFMGFNCGNCKFGFWGPNCTERRLLVRRNIFDLSAPEKDKFFAYLTLAKHTISSDYVIPIGTYGQMKNGSTPMFNDINIYDLFVWMHYYVSMDALLGGSEIWRDIDFAHEAPAFLPWHRLFLLRWEQEIQKLTGDENFTIPYWDWRDAEKCDICTDEYMGGQHPTNPNLLSPASFFSSWQIVCSRLEEYNSHQSLCNGTPEGPLRRNPGNHDKSRTPRLPSSADVEFCLSLTQYESGSMDKAANFSFRNTLEGFASPLTGIADASQSSMHNALHIYMNGTMSQVQGSANDPIFLLHHAFVDSIFEQWLRRHRPLQEVYPEANAPIGHNRESYMVPFIPLYRNGDFFISSKDLGYDYSYLQDSDPDSFQDYIKSYLEQASRIWSWLLGAAMVGAVLTALLAGLVSLLCRHKRKQLPEEKQPLLMEKEDYHSLYQSHL | – | – | – | – | – | – | – | abolishes
9 | human tyrosinase: Δ3 (protein) parent chain: MLLAVLYCLLWSFQTSAGHFPRACVSSKNLMEKECCPPWSGDRSPCGQLSGRGSCQNILLSNAPLGPQFPFTGVDDRESWPSVFYNRTCQCSGNFMGFNCGNCKFGFWGPNCTERRLLVRRNIFDLSAPEKDKFFAYLTLAKHTISSDYVIPIGTYGQMKNGSTPMFNDINIYDLFVWMHYYVSMDALLGGSEIWRDIDFAHEAPAFLPWHRLFLLRWEQEIQKLTGDENFTIPYWDWRDAEKCDICTDEYMGGQHPTNPNLLSPASFFSSWQIVCSRLEEYNSHQSLCNGTPEGPLRRNPGNHDKSRTPRLPSSADVEFCLSLTQYESGSMDKAANFSFRNTLEGFASPLTGIADASQSSMHNALHIYMNGTMSQVQGSANDPIFLLHHAFVDSIFEQWLRRHRPLQEVYPEANAPIGHNRESYMVPFIPLYRNGDFFISSKDLGYDYSYLQDSDPDSFQDYIKSYLEQASRIWSWLLGAAMVGAVLTALLAGLVSLLCRHKRKQLPEEKQPLLMEKEDYHSLYQSHL | decreases | no change | changes | abolishes | decreases, The remaining mutants show intermediate activity, ranging from 25% to 30% | – | – | –
